Reference: patent publication US20220331426A1, “METHODS OF TREATING CANCER USING TIGIT INHIBITORS AND ANTI-CANCER AGENTS” (Genentech, Inc., priority 2014, published 2022)

T1: human TIGIT (Homo sapiens, UniProt Q495A1)
T1 sequence (Q495A1 22-244): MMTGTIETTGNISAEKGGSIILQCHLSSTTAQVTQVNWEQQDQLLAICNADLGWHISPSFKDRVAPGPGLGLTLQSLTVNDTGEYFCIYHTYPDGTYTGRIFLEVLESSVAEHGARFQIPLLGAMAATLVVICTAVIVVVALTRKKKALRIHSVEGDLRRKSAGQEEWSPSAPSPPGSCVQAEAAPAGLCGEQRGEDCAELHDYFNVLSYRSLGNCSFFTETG


Biological target: T1, human TIGIT
Test: binding of anti-TIGIT antibodies to human TIGIT
Conditions: hamster-anti-mouse anti-TIGIT antibodies; qualitative statement, no method given

Row | Molecule | specific binding to human TIGIT
1 | 10A7: hamster-anti-mouse anti-TIGIT antibody; light chain SEQ ID NO:13, heavy chain SEQ ID NO:15 (antibody, V domains shown) VH: EVQLVESGGGLTQPGKSLKLSCEASGFTFSSFTMHWVRQSPGKGLEWVAFIRSGSGIVFYADAVRGRFTISRDNAKNLLFLQMNDLKSEDTAMYYCARRPLGHNTFDSWGQGTLVTVSS VL: DIVMTQSPSSLAVSPGEKVTMTCKSSQSLYYSGVKENLLAWYQQKPGQSPKLLIYYASIRFTGVPDRFTGSGSGTDYTLTITSVQAEDMGQYFCQQGINNPLTFGDGTKLEIKR | specifically bound
2 | 1F4: hamster-anti-mouse anti-TIGIT antibody; light chain SEQ ID NO:14, heavy chain SEQ ID NO:16 (antibody, V domains shown) VH: EVQLQQSGPELVKPGTSMKISCKASGYSFTGHLMNWVKQSHGKNLEWIGLIIPYNGGTSYNQKFKGKATLTVDKSSSTAYMELLSLTSDDSAVYFCSRGLRGFYAMDYWGQGTSVTVSS VL: DVVLTQTPLSLSVSFGDQVSISCRSSQSLVNSYGNTFLSWYLHKPGQSPQLLIFGISNRFSGVPDRFSGSGSGTDFTLKISTIKPEDLGMYYCLQGTHQPPTFGPGTKLEVK | specifically bound
